Source: patent publication US7067474B1, “Agents for treating human illnesses based on β-catenin, and the production and use thereof” (Max-Delbruck-Centrum fur Molekulare Medizin, priority 1998, dated 2006)
Entries after “also recorded” stand apart in the source; their conditions may differ.

T1: APC (20 amino acid repeats) (Homo sapiens, UniProt P25054)
T1 construct: for the amino acids Ser1259Asp 1400 (APC 20 amino acid repeats); expressed in transfected cells; host or cells: yeast (two-hybrid, Matchmaker, Clontech)
T1 sequence (P25054 1253-1394 limits assumed): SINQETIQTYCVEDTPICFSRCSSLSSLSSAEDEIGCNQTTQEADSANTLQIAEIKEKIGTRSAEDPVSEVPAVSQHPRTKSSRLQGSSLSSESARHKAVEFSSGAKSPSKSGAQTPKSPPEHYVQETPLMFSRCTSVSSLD

T2: APC (15 amino acid repeats) (Homo sapiens, UniProt P25054)
T2 construct: of human APC for the amino acids His1012–Glu1215 (APC 15 amino acid repeats); expressed in transfected cells; host or cells: yeast (two-hybrid, Matchmaker, Clontech)
T2 sequence (P25054 1006-1209 limits assumed): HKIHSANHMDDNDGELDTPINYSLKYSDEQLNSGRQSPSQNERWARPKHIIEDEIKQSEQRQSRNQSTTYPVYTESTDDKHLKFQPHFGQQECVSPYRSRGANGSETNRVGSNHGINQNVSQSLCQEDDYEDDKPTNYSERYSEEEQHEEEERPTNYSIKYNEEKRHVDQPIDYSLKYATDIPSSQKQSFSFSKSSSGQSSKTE


Columns and labels:
Format in all cases: binding
E-cadherin = target: T3, E-cadherin (Mus musculus, UniProt P09803); assay: yeast 2-hybrid: interaction of β-catenin mutants with E-cadherin; settings: alanine mutants
T3 construct: E-cadherin for the amino acids Gin773–Asp884 (cytoplasmatic domain); expressed in transfected cells; host or cells: yeast (two-hybrid, Matchmaker, Clontech)
T3 sequence (P09803 773-884): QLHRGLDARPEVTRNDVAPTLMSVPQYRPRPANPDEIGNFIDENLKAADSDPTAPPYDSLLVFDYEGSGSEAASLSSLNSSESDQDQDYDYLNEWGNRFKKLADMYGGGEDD
Method: (§1) The mutagenesis of β-catenin in the armadillo repeats 3–8 was carried out by means of the “mutagenesis kit” of the company Clontech according to the producer's record and the mutants were checked by sequencing (FIG. 5). In all mutants the original amino acid was substituted by alanine. For analyzing the interactions the cDNA of human β-catenin (armadillo repeat 3 up to the C-terminal end of the protein) coding for the amino acids Leu218–Leu7 μl or its mutants was cloned into the fusion vector for the activation domain of Gal-4 (pGAD424, Clontech). The cDNA for the binding domains of the interaction partners was cloned into the Lex-A fusion vector BTM 116. To this end, the cDNA of LEF-1 for the amino acids 1–99, conductin for the amino acids Ala342–ARG465; of human APC for the amino acids His1012–Glu1215 (APC 15 amino acid repeats) and for the amino acids Ser1259Asp 1400 (APC 20 amino acid repeats) and E-cadherin for the amino acids Gin773–Asp884 (cytoplasmatic domain) were amplified with the respective primers PCR. The interaction of the Lex-A hybrids with β-catenin and its mutants was quantified by means of the β-galactosidase reporter activity in the yeast 2-hybrid system (report: “Matchmaker”. Clontech) (Tab. 2 and FIG. 6).

LEF-1 = target: T4, LEF-1 (Mus musculus, UniProt P27782); assay: yeast 2-hybrid: interaction of β-catenin mutants with LEF-1; settings: for Interaction With LEF-1, share of wild type β-catenin interaction: yeast 2-hybrid, alanine mutants; for interaction with LEF-1/TCF-4: β-catenin mutation, in words
T4 construct: the cDNA of LEF-1 for the amino acids 1–99; expressed in transfected cells; host or cells: yeast (two-hybrid, Matchmaker, Clontech)
T4 sequence (P27782 1-99): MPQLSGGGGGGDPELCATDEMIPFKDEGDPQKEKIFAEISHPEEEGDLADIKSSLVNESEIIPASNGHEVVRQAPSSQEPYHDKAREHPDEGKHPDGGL
Method: as §1

[1] = target: T1, APC (20 amino acid repeats); assay: yeast 2-hybrid: interaction of β-catenin mutants with APC 20 amino acid repeats; settings: for Interaction With APC-20, share of wild type β-catenin interaction: yeast 2-hybrid, alanine mutants
Method: as §1

conductin = target: T5, conductin (Mus musculus, UniProt O88566); assay: yeast 2-hybrid: interaction of β-catenin mutants with conductin; settings: for Interaction With Conductin, share of wild type β-catenin interaction: yeast 2-hybrid, alanine mutants; for interaction with conductin: β-catenin mutation, in words
T5 construct: conductin for the amino acids Ala342–ARG465; expressed in transfected cells; host or cells: yeast (two-hybrid, Matchmaker, Clontech)
T5 sequence (O88566 343-465 limits assumed): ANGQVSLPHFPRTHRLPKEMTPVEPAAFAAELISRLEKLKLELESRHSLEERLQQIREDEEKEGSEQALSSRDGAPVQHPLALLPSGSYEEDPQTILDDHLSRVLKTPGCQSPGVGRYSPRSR
Method: as §1

[2] = target: T2, APC (15 amino acid repeats); assay: yeast 2-hybrid: interaction of β-catenin mutants with APC 15 amino acid repeats; settings: yeast 2-hybrid, alanine mutants
Method: as §1

| Molecule | Interaction With APC-20, share of wild type β-catenin interaction [1] | Interaction With Conductin, share of wild type β-catenin interaction (conductin) | Interaction With APC-15, share of wild type β-catenin interaction [2] | interaction with conductin (conductin) | interaction with APC 20aa ([1]; β-catenin mutation, in words) | Interaction With E-Cadherin, share of wild type β-catenin interaction (E-cadherin) | Interaction With LEF-1, share of wild type β-catenin interaction (LEF-1) | interaction with LEF-1/TCF-4 (LEF-1) |
| --- | --- | --- | --- | --- | --- | --- | --- | --- |
| Lys 435: human β-catenin mutant, Lys 435 substituted by alanine (arm 8) (protein, left off: large carriers; small tags and cut ends) LHNLSHHREGLLAIFKSGGIPALVKMLGSPVDSVLFYAITTLHNLLLHQEGAKMAVRLAGGLQKMVALLNKTNVKFLAITTDCLQILAYGNQESKLIILASGGPQALVNIMRTYTYEKLLWTTSRVLKVLSVCSSNKPAIVEAGGMQALGLHLTDPSQRLVQNCLWTLRNLSDAATKQEGMEGLLGTLVQLLGSDDINVVTCAAGILSNLTCNNYKNAMMVCQVGGIEALVRTVLRAGDREDITEPAICALRHLTSRHQEAEMAQNAVRLHYGLPVVVKLLHPPSHWPLIKATVGLIRNLALCPANHAPLREQGAIPRLVQLLVRAHQDTQRRTSMGGTQQQFVEGVRMEEIVEGCTGALHILARDVHNRIVIRGLNTIPLFVQLLYSPIENIQRVAAGVLCELAQDKEAAEAIEAEGATAPLTELLHSRNEGVATYAAAVLFRMSEDKPQDYKKRLSVELTSSLFRTEPMAWNETADLGLDIGAQGEPLGYRQDDPSYRSFHSGGYGQDALGMDPMMEHEMGGHHPGADYPVDGLPDLGHAQDLMDGLPPGDSNQLAWFDTDL | — (Interactions marked by — correspond to 60–100% of the wild type interaction) | 42% | 30% | – | – | — (Interactions marked by — correspond to 60–100% of the wild type interaction) | — (Interactions marked by — correspond to 60–100% of the wild type interaction) | blocking the interaction |
| Trp 338: human β-catenin mutant, Trp 338 substituted by alanine (arm 5) (protein, left off: large carriers; small tags and cut ends) LHNLSHHREGLLAIFKSGGIPALVKMLGSPVDSVLFYAITTLHNLLLHQEGAKMAVRLAGGLQKMVALLNKTNVKFLAITTDCLQILAYGNQESKLIILASGGPQALVNIMRTYTYEKLLATTSRVLKVLSVCSSNKPAIVEAGGMQALGLHLTDPSQRLVQNCLWTLRNLSDAATKQEGMEGLLGTLVQLLGSDDINVVTCAAGILSNLTCNNYKNKMMVCQVGGIEALVRTVLRAGDREDITEPAICALRHLTSRHQEAEMAQNAVRLHYGLPVVVKLLHPPSHWPLIKATVGLIRNLALCPANHAPLREQGAIPRLVQLLVRAHQDTQRRTSMGGTQQQFVEGVRMEEIVEGCTGALHILARDVHNRIVIRGLNTIPLFVQLLYSPIENIQRVAAGVLCELAQDKEAAEAIEAEGATAPLTELLHSRNEGVATYAAAVLFRMSEDKPQDYKKRLSVELTSSLFRTEPMAWNETADLGLDIGAQGEPLGYRQDDPSYRSFHSGGYGQDALGMDPMMEHEMGGHHPGADYPVDGLPDLGHAQDLMDGLPPGDSNQLAWFDTDL | 55% | 20% | — (Interactions marked by — correspond to 60–100% of the wild type interaction) | no interaction with conductin | – | — (Interactions marked by — correspond to 60–100% of the wild type interaction) | — (Interactions marked by — correspond to 60–100% of the wild type interaction) | – |
| His 470: human β-catenin mutant, His 470 substituted by alanine (arm 8) (protein, left off: large carriers; small tags and cut ends) LHNLSHHREGLLAIFKSGGIPALVKMLGSPVDSVLFYAITTLHNLLLHQEGAKMAVRLAGGLQKMVALLNKTNVKFLAITTDCLQILAYGNQESKLIILASGGPQALVNIMRTYTYEKLLWTTSRVLKVLSVCSSNKPAIVEAGGMQALGLHLTDPSQRLVQNCLWTLRNLSDAATKQEGMEGLLGTLVQLLGSDDINVVTCAAGILSNLTCNNYKNKMMVCQVGGIEALVRTVLRAGDREDITEPAICALRALTSRHQEAEMAQNAVRLHYGLPVVVKLLHPPSHWPLIKATVGLIRNLALCPANHAPLREQGAIPRLVQLLVRAHQDTQRRTSMGGTQQQFVEGVRMEEIVEGCTGALHILARDVHNRIVIRGLNTIPLFVQLLYSPIENIQRVAAGVLCELAQDKEAAEAIEAEGATAPLTELLHSRNEGVATYAAAVLFRMSEDKPQDYKKRLSVELTSSLFRTEPMAWNETADLGLDIGAQGEPLGYRQDDPSYRSFHSGGYGQDALGMDPMMEHEMGGHHPGADYPVDGLPDLGHAQDLMDGLPPGDSNQLAWFDTDL | 47% | — (Interactions marked by — correspond to 60–100% of the wild type interaction) | 60% | – | – | — (Interactions marked by — correspond to 60–100% of the wild type interaction) | – | blocking the interaction; also recorded: no interaction with LEF-1/TCF-4 |
| Phe 253: human β-catenin mutant, Phe 253 substituted by alanine (arm 3) (protein, left off: large carriers; small tags and cut ends) LHNLSHHREGLLAIFKSGGIPALVKMLGSPVDSVLAYAITTLHNLLLHQEGAKMAVRLAGGLQKMVALLNKTNVKFLAITTDCLQILAYGNQESKLIILASGGPQALVNIMRTYTYEKLLWTTSRVLKVLSVCSSNKPAIVEAGGMQALGLHLTDPSQRLVQNCLWTLRNLSDAATKQEGMEGLLGTLVQLLGSDDINVVTCAAGILSNLTCNNYKNKMMVCQVGGIEALVRTVLRAGDREDITEPAICALRHLTSRHQEAEMAQNAVRLHYGLPVVVKLLHPPSHWPLIKATVGLIRNLALCPANHAPLREQGAIPRLVQLLVRAHQDTQRRTSMGGTQQQFVEGVRMEEIVEGCTGALHILARDVHNRIVIRGLNTIPLFVQLLYSPIENIQRVAAGVLCELAQDKEAAEAIEAEGATAPLTELLHSRNEGVATYAAAVLFRMSEDKPQDYKKRLSVELTSSLFRTEPMAWNETADLGLDIGAQGEPLGYRQDDPSYRSFHSGGYGQDALGMDPMMEHEMGGHHPGADYPVDGLPDLGHAQDLMDGLPPGDSNQLAWFDTDL | 40% | 17% | — (Interactions marked by — correspond to 60–100% of the wild type interaction) | no interaction with conductin | – | — (Interactions marked by — correspond to 60–100% of the wild type interaction) | — (Interactions marked by — correspond to 60–100% of the wild type interaction) | – |
| Trp 383: human β-catenin mutant, Trp 383 substituted by alanine (arm 6) (protein, left off: large carriers; small tags and cut ends) LHNLSHHREGLLAIFKSGGIPALVKMLGSPVDSVLFYAITTLHNLLLHQEGAKMAVRLAGGLQKMVALLNKTNVKFLAITTDCLQILAYGNQESKLIILASGGPQALVNIMRTYTYEKLLWTTSRVLKVLSVCSSNKPAIVEAGGMQALGLHLTDPSQRLVQNCLATLRNLSDAATKQEGMEGLLGTLVQLLGSDDINVVTCAAGILSNLTCNNYKNKMMVCQVGGIEALVRTVLRAGDREDITEPAICALRHLTSRHQEAEMAQNAVRLHYGLPVVVKLLHPPSHWPLIKATVGLIRNLALCPANHAPLREQGAIPRLVQLLVRAHQDTQRRTSMGGTQQQFVEGVRMEEIVEGCTGALHILARDVHNRIVIRGLNTIPLFVQLLYSPIENIQRVAAGVLCELAQDKEAAEAIEAEGATAPLTELLHSRNEGVATYAAAVLFRMSEDKPQDYKKRLSVELTSSLFRTEPMAWNETADLGLDIGAQGEPLGYRQDDPSYRSFHSGGYGQDALGMDPMMEHEMGGHHPGADYPVDGLPDLGHAQDLMDGLPPGDSNQLAWFDTDL | 0% | — (Interactions marked by — correspond to 60–100% of the wild type interaction) | 59% | – | no interaction with APC 20aa | — (Interactions marked by — correspond to 60–100% of the wild type interaction) | — (Interactions marked by — correspond to 60–100% of the wild type interaction) | – |
